The Km is the concentration of substrate that gives half-maximal velocity. The kcat is the number of substrate molecules converted per active site and unit of time at saturation. The kcat/Km is the second-order rate constant that governs catalysis at low substrate concentration.

The labels stand for the following.
B1: rCsPGDS1 (Clonorchis sinensis) (protein)
chain: MSQYKLTYFNLRGRAEPIRMVLIISGTPFEDCRIEVSDWPSKKSTIPGGKLPILEVTSPCGKKTLMTESMATARYLAKQHNLMGATDEDYYKIEKTIGECGDLHDLVYKIARAPDAEKPKLIEELKKLENAPRLLNLMSETLKSNPSGFVAGEKVSLGDIALLCTLDQFESVYPGFLKENYPIFANHREHIMELQPKLAEHIKTRPTTIV
B2: rCsGST-σ3 (Clonorchis sinensis) (protein)
chain: MSGEKYKLYYFPFRARGEVIRMVLHAAGVPFDDERIPMDDWPKRKSEIPGGRMPVLQVIDPDKPDTPKNFVEGMAIARMLAKRFDLMDDTEEGYYNTERMIGECEDVFKEFRSVFLSPADKKEELLKEAMETSIPKQLDLISKSLSESAGKFVAGCKVTLGDLCLLACLDHVDKSDPEFLKDKYPKLLEWREEVLKEKPKLADYIKSRPDTPF
B3: rCsGST-μ1 (Clonorchis sinensis) (protein)
chain: MAPVLGYWKIRGLAQPIRLLLEYVGDSYEEHSYGRCDGEKWQNDKHNLGLELPNLPYYKDGNFSLTQSLAILRYIADKHNMIGNTPVERAKISMIEGGLVDLRAGVSRIAYQETFVCIVSTFCLSHTSQEQLKVPYLQQLPSTLRMWSQFLGNNSYLHGSTPTHLDFMFYEALDVIRYLDPTSVEAFPNLMQFIHRIEALPNIKAFMESDRFIKWPLNGWSAYFGGGDAPPK
B4: rCsGST-σ1 (Clonorchis sinensis) (protein)
chain: MADEHYTLFYFQFRGRAEAIRMILHANGVHFKDERFTMNEWPERRNQIPGSRVPLLQVKKNKTHEVANYVESMAIARMLAKRFHMMGDSEEEYYRVERMIGQCADLDKEFYTAFFAAADQKEEMLKKSMREAVPKMLDLISKSISESGGKFAAGDKVTLGDICLLTSMDHVRKHDPEFLGKHYPKLLVLEQEVLKAKPKLAEYIRTRPETPL

Substrate in the series: [H][C@]12C[C@]([H])(OO1)[C@H](C/C=C\CCCC(=O)O)[C@H]2/C=C/[C@@H](O)CCCCC
The experiment in a line: purified protein. To be noted: PGD2 synthase reaction; 2 mM GSH fixed (saturating); PGH2 0.08-40 μM.
With B1, the Km was 21.0 µM, the kcat was determined as 90.6 s⁻¹ and the kcat/Km is 4.3e+06 M⁻¹ s⁻¹.

As for B2, the Michaelis constant (Km) is 30.2 µM, the kcat came to 90.7 s⁻¹ and the catalytic efficiency (kcat/Km) came out at 3e+06 M⁻¹ s⁻¹.

Consider B3, for which the Michaelis constant (Km) worked out at 4.9 µM, the kcat amounted to 12.5 s⁻¹ and the kcat/Km was 2.6e+06 M⁻¹ s⁻¹.

For B4, the Km worked out at 92.1 µM, the kcat was 451 s⁻¹ and the specificity constant (kcat/Km) is 4.9e+06 M⁻¹ s⁻¹.
